The values that follow come from article PMC4069020, “A 14.7 kDa Protein from Francisella tularensis subsp. novicida (Named FTN_1133), Involved in the Response to Oxidative Stress Induced by Organic Peroxides, Is Not Endowed with Thiol-Dependent Peroxidase Activity” (PLoS ONE, 2014).

The series concerns the molecule itself. Put plainly: non-reducing SDS-PAGE.

B1: FTN_1133 (14.7 kDa protein from Francisella tularensis subsp. novicida), recombinant His-tagged (natural protein)
chain: MAISQNVIKILQDIDELDLFSNISDEWSTLLNESDDNIKIKKLYSALVKESIRRETAERLAKDAKSYCDLVQEQAKQRISDLKESLESQITFLTQQIKDLKVESAKNLDYYRNELKKANRSLIDNKS
notes: also called His-FTN_1133
For the protein B1, the stoichiometry N – broadly, a count of units in the complex or per binding partner – was found to be 2.
